Measurements from patent US20190359723A1 (CARSGEN THERAPEUTICS, published 2019).
Changes are numbered by the printed parent chain.

T1: Murine IL-13RA2 (murine, UniProt O88786 22-334, limits assumed)
T1 construct: Bought recombinant protein; coated on the ELISA plate at 5 ug/ml
T1 sequence (looked up): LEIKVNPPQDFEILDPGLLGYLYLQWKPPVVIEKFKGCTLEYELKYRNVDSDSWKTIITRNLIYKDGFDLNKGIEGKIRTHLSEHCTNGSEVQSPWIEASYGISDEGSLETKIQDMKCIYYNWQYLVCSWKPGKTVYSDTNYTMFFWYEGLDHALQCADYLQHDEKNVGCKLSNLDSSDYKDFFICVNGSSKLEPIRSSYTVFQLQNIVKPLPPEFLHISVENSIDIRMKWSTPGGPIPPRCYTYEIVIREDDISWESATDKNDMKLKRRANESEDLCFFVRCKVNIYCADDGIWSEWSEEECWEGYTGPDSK

B1: 5D7 (scFv) (scFv)
scFv: EVQLLESGGGLVQPGGSLRLSCAASGFTFSNYAMSWVRQAPGKGLEWVSGIRSSGGRTFYADSVKGRFTISRDNSKNTLYLQMNSLRAEDTAVYYCARVAFSGSFDYWGQGTLVTVSSGGGGSGGGGSGGGGSDIQMTQSPSTLSASVGDRVTITCRASQSISSWLAWYQQKPGKAPKLLIYDASSLESGVPSRFSGSGSGTEFTLTISSLQPDDFATYYCQQRNRYPPTFGQGTKVEIK
notes: also called clone 5D7
B2: 5G3 (scFv) (scFv)
scFv: B1 scFv with N31S, A33V, M34L, G50A, S53G, G55A, R57N, F59Y
notes: also called clone 5G3
B3: 1B11 (scFv) (scFv)
scFv: EVQLLESGGGLVQPGGSLRLSCAASGFTFSRDALNWVRQAPGKGLEWVSAISGSGGSTFYADSVKGRFTISRDNSKNTLYLQMNSLRAEDTAVYYCAKVRYGWGAGAFDYWGQGTLVTVSSGGGGSGGGGSGGGGSDIQMTQSPSTLSASVGDRVTITCRASQSISSWLAWYQQKPGKAPKLLIYDASSLESGVPSRFSGSGSGTEFTLTISSLQPDDFATYYCQQYDTYPPITFGQGTKVEIK
notes: also called clone 1B11
B4: 2D4 (scFv) (scFv)
scFv: B3 scFv with S30R, R31K, D32Y, L34M, N35G, A50G, G55V, F59Y
notes: also called clone 2D4

What follows are binders tested against T2, IL-13RA2 huFc (human) (assay: SPR (Biacore T200), nickel-purified scFv).
T2 construct: Expressed in 293F cells, purified on protein A; also called human IL13RA2; recombinant IL-13RA2
T2 sequence (chain, as listed by the source limits assumed): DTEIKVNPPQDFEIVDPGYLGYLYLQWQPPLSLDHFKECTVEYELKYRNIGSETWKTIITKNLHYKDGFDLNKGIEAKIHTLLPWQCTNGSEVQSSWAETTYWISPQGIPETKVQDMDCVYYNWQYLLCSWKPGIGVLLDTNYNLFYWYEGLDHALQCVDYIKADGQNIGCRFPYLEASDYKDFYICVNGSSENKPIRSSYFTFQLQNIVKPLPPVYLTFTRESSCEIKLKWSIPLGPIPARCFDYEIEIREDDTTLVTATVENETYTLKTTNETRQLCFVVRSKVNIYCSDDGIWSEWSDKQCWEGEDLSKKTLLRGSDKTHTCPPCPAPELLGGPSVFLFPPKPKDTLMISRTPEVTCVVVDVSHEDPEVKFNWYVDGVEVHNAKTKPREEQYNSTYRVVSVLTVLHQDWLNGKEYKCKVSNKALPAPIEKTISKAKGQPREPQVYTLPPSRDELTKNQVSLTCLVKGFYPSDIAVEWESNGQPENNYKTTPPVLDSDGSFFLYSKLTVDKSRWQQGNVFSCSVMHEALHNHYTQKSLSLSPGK
Protocol: IL-13RA2 huFc was coated on the CMS chip by amino coupling, coated to about 500 RU, and the gradiently diluted antibodies were passed through the antigen-coated channel at a flow rate of 30 ul/min as a mobile phase. The running buffer was HBS-N and the temperature was 25° C. The experimental data was analyzed by BIAevaluation 3.2 and the kinetic curves were fitted using a 1:1 langmuir model.
Affinity purification was performed using a nickel column, affinity was measured using biacore T200, and the association and dissociation constants of the affinity matured antibodies are shown as in FIG. 10A.

Kd [nM]	koff [s⁻¹]	kon [M⁻¹ s⁻¹]	Binder
5.4	0.000443	82200	B1
8.34	0.000586	70300	B2
17.5	0.000803	46000	B3
8.92	0.000745	83500	B4

Each binder was assayed against T2, IL-13RA2 huFc (assay: Biacore, induced supernatant of the scFv clone; parent 31C2).

fold lower dissociation constant Kd than the parent clone [times]	Binder
> 10	B3
> 10	B4

The binders below were run against T2, IL-13RA2 huFc (assay: Biacore, induced supernatant of the scFv clone; parent 32H4).

fold lower dissociation constant Kd than the parent clone [times]	Binder
> 10	B1
> 10	B2

What follows are binders tested against T2, IL-13RA2 huFc (assay: SPR (Biacore), induced scFv supernatant; column head: Dissociation constant Kd(S-1)).

koff [s⁻¹]	Binder
0.00154	B1
0.000941	B2
0.000736	B3
0.000837	B4

These binders were tested against T3, IL-13RA1_huFc (human) (assay: ELISA by the method of Example 3, antibody concentration not given; bars assigned by their order in the legend).
T3 construct: IL-13RA1 extracellular segment, 'GS', Fc segment Asp104-Lys330 of the human IgG1 heavy chain constant region; also called human IL13RA1
T3 sequence (chain, as listed by the source limits assumed): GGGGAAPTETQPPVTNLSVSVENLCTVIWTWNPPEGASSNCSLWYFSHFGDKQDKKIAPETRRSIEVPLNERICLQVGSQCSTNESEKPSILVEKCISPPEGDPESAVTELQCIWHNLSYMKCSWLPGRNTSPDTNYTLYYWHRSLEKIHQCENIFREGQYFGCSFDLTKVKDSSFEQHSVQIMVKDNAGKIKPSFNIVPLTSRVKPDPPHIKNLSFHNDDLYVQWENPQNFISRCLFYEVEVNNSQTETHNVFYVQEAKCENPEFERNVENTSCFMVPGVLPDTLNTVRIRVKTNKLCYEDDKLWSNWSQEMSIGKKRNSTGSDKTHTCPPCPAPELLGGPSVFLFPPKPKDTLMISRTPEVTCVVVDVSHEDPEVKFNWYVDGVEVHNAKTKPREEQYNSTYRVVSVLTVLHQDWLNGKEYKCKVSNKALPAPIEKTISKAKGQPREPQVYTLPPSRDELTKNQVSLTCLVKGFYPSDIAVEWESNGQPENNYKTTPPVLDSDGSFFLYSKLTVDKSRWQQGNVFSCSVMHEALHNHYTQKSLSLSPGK
Protocol: (§1) The species specificity of antibodies 31C2 and 32H4 was determined by standard ELISA. Murine IL-13RA2 was purchased from Sino Biological Inc. The ELISA plate was coated with 100 ul of 5 ug/ml murine IL-13RA2 per well at 4° C. overnight. The coated ELISA plate was washed with PBS three times. 200 ul solution of 2% skim milk powder in PBS per well was added for blocking at room temperature for 1 hour. The plate was washed with PBS three times. The gradiently diluted antibodies with a starting concentration of 10 μg/ml, 3-fold serially diluted, were added and incubated at room temperature for 1 hr. The mixture was washed with PBST three times and washed with PBS three times. HRP-labeled goat anti-human Fc was added and incubated at room temperature for 1 hour. The mixture was washed with PBST three times and washed with PBS three times. After TMB was added for color development for 15 minutes, and the reaction was stopped by the addition of sulfuric acid, and read on a microplate reader.
(§2) The specificity of the antibodies 5D7, 2C7, 5G3, 2D4, 2D3 and 1B11 was determined by standard ELISA following the method of Example 3. The results were shown as in FIG. 10B.

binding result	Binder
no binding	B3
no binding	B4

The binders below were run against T1, Murine IL-13RA2 in the same assay as above.
Protocol: as §1, §2

binding result	Binder
binds	B3
binds	B4
